Data from publication PMC11503491.

Key:
Test in all cases: BLI
[1] = biological target: R11K (RBD 319-533 with 11 added lysines and the repackaging substitutions Y365F, F392W, V395I) (SARS-CoV-2 Wuhan Hu-1)
[2] = biological target: R11K-CL (R11K cross-linked with Bis-NHS-PEG5 while protected on S2X259 resin) (SARS-CoV-2 Wuhan Hu-1)
[3] = biological target: R11K-PMD (R11K modified with NHS-PEG4-methyl while protected on S2X259 resin) (SARS-CoV-2 Wuhan Hu-1)
[4] = biological target: R11K-CL (R11K cross-linked with Bis-NHS-PEG5 while protected by S2X259) (SARS-CoV-2 Wuhan Hu-1)
[5] = biological target: R11K-PMD (R11K modified with NHS-PEG4-methyl while protected by S2X259) (SARS-CoV-2 Wuhan Hu-1)
[6] = biological target: R11K (RBD with 11 additional lysines and three repackaging substitutions) (SARS-CoV-2 Wuhan Hu-1)

S309 (class 3 RBD-directed antibody)
koff [1]: 0.00014 s⁻¹ | koff [2]: 0.0021 s⁻¹ | koff [3]: 0.0019 s⁻¹

S2X259 (class 4 RBD-directed antibody)
koff [1]: 0.0021 s⁻¹

CR3022 (class 4 RBD-directed antibody)
koff [1]: 0.059 s⁻¹

S2X259 IgG (antibody)
koff [4]: 0.001 s⁻¹ | koff [5]: 0.00085 s⁻¹

fragment antigen-binding region (Fab) of S2X259
Kd [6]: 1.5 nM

CB6 (class 1 RBD-directed antibody)
koff [1]: 0.037 s⁻¹
